In paper PMC11633198, “Vibrio cholerae CsrA controls ToxR levels by increasing the stability and translation of toxR mRNA”:

Tests used:
CsrA [1] = biological target: T1, CsrA (Vibrio cholerae, UniProt Q9KUH3 1-65); assay: EMSA; 1 nM RNA; conditions: protein: recombinant; tags: N-terminal 6xHis removed by TEV protease; chain copies: 2; label: 5' biotin; partly folded, stem-loops predicted by mfold
CsrA [2] = biological target: T1, CsrA; assay: EMSA; 1 nM RNA, 640 nM CsrA; also no binding when mixed with CsrB-left; conditions: protein: recombinant; tags: N-terminal 6xHis removed by TEV protease; chain copies: 2; label: 3' biotin; hairpin (mfold)
CsrA [3] = biological target: T1, CsrA; assay: EMSA; 1 nM RNA, 640 nM CsrA; also no binding when mixed with CsrB-right; conditions: protein: recombinant; tags: N-terminal 6xHis removed by TEV protease; chain copies: 2; label: 3' biotin; hairpin (mfold)
CsrA [4] = biological target: T1, CsrA; assay: EMSA; 0.1 nM RNA, 0-640 nM CsrA (Fig 3B); 1 nM RNA in Fig 3C; conditions: protein: recombinant; tags: N-terminal 6xHis removed by TEV protease; chain copies: 2; label: 3' biotin; two adjacent hairpins (mfold)
CsrA [5] = biological target: T1, CsrA; assay: EMSA; 1 nM RNA, 640 nM CsrA; conditions: protein: recombinant; tags: N-terminal 6xHis removed by TEV protease; chain copies: 2; label: 3' biotin; two adjacent hairpins (mfold)

T1 sequence (Q9KUH3 whole entry): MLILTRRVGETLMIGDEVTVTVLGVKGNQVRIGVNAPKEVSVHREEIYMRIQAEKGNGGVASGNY

B1: toxR 5'UTR (ssRNA)
RNA: GCAUUUUUAUCAAAGAAGAUAAAAAAACCAGUAAAGUCUGAGUGUUGGGACAGGGAGAUACUGGGACAUUAGAUGUUCGGAUUAGGACACAACUCAAAAGAGAUAUCGAUG
binding result (CsrA [1]): binds

B2: CsrB-right (structured_RNA)
RNA: UUUUAGUAGCUGGAAUGCUGCGA
binding result (CsrA [2]): no binding

B3: CsrB-left (structured_RNA)
RNA: UUAGAUGCAGGGAGCACCUUU
binding result (CsrA [3]): no binding

B4: CsrB oligo (structured_RNA)
RNA: UUAGAUGCAGGGAGCACCUUUUAGUAGCUGGAAUGCUGCGA
binding result (CsrA [4]): binds

B5: CsrB-mut (oligo-mut) (structured_RNA)
RNA: UUAGAUGCAUAUAGCACCUUUUAGUAGCUAUAAUGCUGCGA
binding result (CsrA [5]): no binding

B6: mut-left (structured_RNA)
RNA: UUAGAUGCAUAUAGCACCUUUUAGUAGCUGGAAUGCUGCGA
binding result (CsrA [5]): no binding
